Source: patent publication US6353153B1, “Enhanced transport with a plastid membrane transport protein” (priority 1996, dated 2002)

Assays:
Brassica napus = assay: Seed size of transgenic plants carrying the CaMV-Bce44B-NOS transgene; assay type: in vivo; details: primary generation of transgenic plants
Text: (§1) Transgenic plants (Brassica napus, Arabidopsis thaliana and Lycopersicon esculentum) with altered plastid protein transport capacity were produced by introducing a transgene construct consisting of DNA encoding the Bce44B protein and a 5′ untranslated region immediately upstream of the Bce44B coding sequence. Expression of the construct was obtained by linking the cauliflower mosaic virus 35S promoter (Odell, J. T. et al. (1985) Nature 313:810) upstream. Transcriptional termination was facilitated by the gene encoding nopaline synthase (NOS) found in Agrobacterium Ti plasmids or their derivatives such as pBI101 (Clontech). Construction of the 35S CAMV-Bce44B-NOS transgene construct is diagrammed in FIG. 6.
(§2) Agrobacterium strains containing the pEND4K-CAMV-Bce44B-NOS plasmid were used to transform plants following a leaf disc transformation protocol, such as the one described by Horsch et al. (1985) Science 227:1229), or by in planta methods which can include the seed transformation protocol reported by Feldmann and Marks (1987) Mol. Gen. Genet. […]

Lycopersicon esculentum = assay: as above; assay type: in vivo; details: primary generation of transgenic plants
Text: as §1, §2

[1] = system: β-lactamase translocation in E. coli JM109(DE3); assay: Immunoblot of transported and processed β-lactamase; assay type: cell-based, Escherichia coli; details: per cell basis, four hours, ampicillin 50 μg to 3 mg/ml
Method: (§3) Changes to β-lactamase transport were monitored by two different approaches: 1) the ability to form colonies on solid LB-agar plates containing increasing concentrations of ampicillin (50 μg/ml to 3.0 mg/ml); and 2) the level of transported and processed β-lactamase detected by immunoblotting total protein samples of cells grown in LB-broth containing increasing ampicillin concentrations.
The same cells were also used to determine the level of transported β-lactamase grown in media containing increasing concentrations of ampicillin. Cultures were diluted 5× into LB broth with increasing amounts of ampicillin (50 μg/ml to 3.0 mg/ml) and allowed to grow up to 4 hours. The level of transported β-lactamase was monitored by immunoblotting analysis of samples taken at time intervals of 0 hr, 0.5 hr, 1.0 hr, 1.5 hr, 2.0 hr, 3 hr and 4 hr. Immunoblot analysis was performed on total cellular protein samples with anti-p-lactamase antibodies as outlined above.

[2] = system: β-lactamase transport in E. coli JM109(DE3); assay: Ampicillin resistance, ability to form colonies on LB-agar plates with increasing ampicillin; assay type: cell-based, Escherichia coli; details: solid agar media with increasing ampicillin
Text: The enhancement of protein translocation was further investigated using the plasmid-borne multicopy gene, β-lactamase. See Example 14. β-lactamase protein levels are much higher than induced alkaline phosphatase making this system a more sensitive monitor of protein translocation without the complications posed by low phosphate induction. Like alkaline phosphatase, β-lactamase is translocated into the periplasm, where it detoxifies the antibiotic ampicillin, thereby conferring ampicillin-resistance to cells. Because the level of antibiotic resistance conferred also reflects the level of protein transport activity, the level of ampicillin resistance was determined for Bce44B expressing cells and compared to that of Oee1-Dhfr-expressing cells on solid agar media containing increasing concentrations of ampicillin. […] The Bce44B-expressing cells formed colonies with ampicillin concentrations as high as 3 mg/ml, whereas Oee1-Dhfr-expressing cells could not form colonies beyond 1 mg/ml.
as §3, with “concentrations. […]” for “concentrations.”

B1: Bce44B: plastid transport protein, Brassica napus 44 kDa chloroplast envelope protein, member of Com44/Cim44, encoded by SEQ ID NO:1 (protein)
chain: MQTAMKTMMNQMNTQNSQFNNPGFPTGAGAGAGSPFPFPFPPQTSPTTSPFQPQSQSSGATVDLTATKVDRPPVSKPQPTPIPPTKSIEVYKPSVVVEENKAMKEEKNYAFEDVSPEETTKESPFSNYEEVSETSAPKETRLFDDVLQNGAAPANGATASDVFQSLGAGKGWAGGSVEVLEKMIEYPTFQKMLYPHLPEEMRNPESFKWVRKNPQYRQQLQDMLNNMSESGEWDKRMTETLKNFDPNSPEVKQGFDQLGLTPEEVISKIMENPDVSMAFQNPRVEAALMDCSENPMNIMKYQNDKEVMDVFNKISQLFPGLTG
Brassica napus
  seed size relative to wildtype counterparts or pEND4K-only control plants: approximately twice
Lycopersicon esculentum
  seed size relative to wildtype counterparts or pEND4K-only control plants: approximately twice
[1]
  level of processed β-lactamase compared with Oee1-Dhfr-expressing cells: higher
[2]
  ampicillin concentration up to which expressing cells form colonies: ≤ 3 mg/mL
